Results taken from patent US20150196637A1.
Like-named read-outs stand apart in the source and are kept apart here.

How the values were obtained:
[1] = molecular target: IgG1 heavy chain with CH3 construct 8 (Q347K) and common light chain (human) [IgG part: P01857]
[2] = molecular target: IgG1 heavy chain with CH3 construct 67 (K360D) and common light chain (human) [IgG part: P01857]
[3] = molecular target: IgG1 heavy chain with CH3 construct 61 (L351K) and common light chain (human) [IgG part: P01857]
[4] = molecular target: IgG1 heavy chain with CH3 construct 64 (T366D) and common light chain (human) [IgG part: P01857]
[5] = molecular target: IgG1 heavy chain with CH3 construct 2 (K392D, K409D) and common light chain (human) [IgG part: P01857]
[6] = molecular target: IgG1 heavy chain with CH3 construct 2 (K392D, K409D) and common light chain (human) [IgG part: P01857]; test: native MS, transfection #11 of Table 24; fibrinogen VH on construct 1 with fibrinogen VH on construct 2

“IgG1 heavy chain with CH3 construct 8 (Q347K) and common light chain (from UniProt P01857-1)” gave an AA found (%) [1] of 34% and an AC found (%) [2] of 41%.
Substance “IgG1 heavy chain with CH3 construct 61 (L351K) and common light chain (from UniProt P01857-1)” has an AA found (%) [3] of 30% and an AC found (%) [4] of 52%.
“IgG1 heavy chain with CH3 construct 1 (E356K, D399K) and common light chain (from UniProt P01857-1)” was tested, and the % of the mixture (peak height) [5] was 67% and the % of the mixture (peak height) [6] was 61%.
